B1: nanobody NM1230 (VHH)
VHH: QVQLVESGGGLVRPGGSLRLSCVGSGFTFSGYAMNWYRQAPGKALELVAGISNAGDLTHYEEPMKGRVAISRANDKNTVYLQMDDLKPEDTAVYRCHAPGVRVGTGERKDVWGQGAQVTVSS
B2: nanobody NM1229 (VHH)
VHH: EVQLQESGGGLVQPGESLRLSCAASGRTHDWYTMGWFRQAPGKEREFVARINWSSGMTYYADSVKGRFTISRDNPKNTVYLQMNSLTPDDTAVYYCNVHPFTSPDYWGQGTRVTVSS

Target: receptor binding domain (RBD) of the SARS-CoV-2 Spike protein (SARS-CoV-2, UniProt P0DTC2 319-541)

| Binder | IC50 [nM] | Kd [nM] |
| --- | --- | --- |
| B1 | 2.12 | 8.23 |
| B2 | 38 |  |
